The values that follow are results of earlier work, collected in article PMC9499636.

Data set [1] concerns the target EphA2-Sam Sam (Homo sapiens) (UniProt P29317). Briefly: SPR.
In data set [2] the target is Ship2 Sam (Homo sapiens) (UniProt O15357). Briefly: SPR.
Data set [3] shares this target. Briefly: ITC.
The target in data set [4] is EphA2 Sam (Homo sapiens) (UniProt P29317). Briefly: SPR.
Data set [5] shares this target. Briefly: ITC.

Chain of UniProt O15357 (O15357 1193-1258): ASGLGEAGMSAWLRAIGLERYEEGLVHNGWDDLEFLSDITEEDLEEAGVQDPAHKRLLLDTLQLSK

Consider Pep3 (from UniProt Q92625), for which the Kd in data set [1] is 523 µM.

Take EphA2 Sam (from UniProt P29317): the figures for the equilibrium dissociation constant (Kd) with Ship2 Sam (Homo sapiens) [2] and in the data set with Ship2 Sam (Homo sapiens) [3] were 2.2 µM and 0.75 µM, respectively. Take Odin Sam1 (from UniProt Q92625): the Kd with EphA2 Sam (Homo sapiens) [4] was 5.5 µM; in the data set with EphA2 Sam (Homo sapiens) [5] it was 0.62 µM. Take Pep2 (from UniProt Q92625): the Kd in data set [1] was 222 µM.
